# Literature values, collected in publication PMC4034509, “Overcoming co-product inhibition in the nicotinamide independent asymmetric bioreduction of activated C=C-bonds using flavin-dependent ene-reductases” (Biotechnology and Bioengineering, 2013).
# Target: Tyr206 (UniProt position 206, …)
# Conditions: Not stated. The value is discussed in the context of the phenol/phenolate charge-transfer complex with the oxidised flavin in the EBP1 active site.
protein,measurement,value
Estrogen binding protein EBP1 (old yellow enzyme homologue) (Candida albicans) (protein) MTIESTNSFVVPSDTKLIDVTPLGSTKLFQPIKVGNNVLPQRIAYVPTTRFRASKDHIPSDLQLNYYNARSQYPGTLIITEATFASERGGIDLHVPGIYNDAQAKSWKKINEAIHGNGSFSSVQLWYLGRVANAKDLKDSGLPLIAPSAVYWDENSEKLAKEAGNELRALTEEEIDHIVEVEYPNAAKHALEAGFDYVEIHGAHGYLLDQFLNLASNKRTDKYGCGSIENRARLLLRVVDKLIEVVGANRLALRLSPWASFQGMEIEGEEIHSYILQQLQQRADNGQQLAYISLVEPRVTGIYDVSLKDQQGRSNEFAYKIWKGNFIRAGNYTYDAPEFKTLINDLKNDRSIIGFSRFFTSNPDLVEKLKLGKPLNYYNREEFYKYYNYGYNSYDESEKQVIGKPLA,pKa,9.4
